Test results published in PMC10846113, “fosA11, a novel chromosomal-encoded fosfomycin resistance gene identified in Providencia rettgeri” (Microbiology Spectrum, 2023).

Columns and labels:
[1] = test system: C[C@@H]1O[C@@H]1P(=O)(O)O; test: glutathione consumption, monochlorobimane fluorescence, Michaelis-Menten fit; type: biochemical, Escherichia coli; settings: 30 mM glutathione, 0.05 mM MnCl2, 0.1 M HEPES pH 8.0, 25 °C
From the text: glutathione consumption, monochlorobimane fluorescence, Michaelis-Menten fit on FosA3

[2] = test system: C[C@@H]1O[C@@H]1P(=O)(O)O; test: as above; type: biochemical, Providencia rettgeri; settings: 30 mM glutathione, 0.05 mM MnCl2, 0.1 M HEPES pH 8.0, 25 °C
From the text: glutathione consumption, monochlorobimane fluorescence, Michaelis-Menten fit on FosA11

Substance | Km [1] [mM] | kcat [1] [s⁻¹] | kcat/Km [1] [M⁻¹ s⁻¹] | Km [2] [mM] | kcat [2] [s⁻¹] | kcat/Km [2] [M⁻¹ s⁻¹]
FosA3 (Escherichia coli) | 12 ± 2 | 112 ± 5.3 | 9000 ± 1000 | – | – | –
FosA11 (Providencia rettgeri) | – | – | – | 18 ± 4 | 56.1 ± 3.2 | 2900 ± 500
